Positions count from the first letter of the chain named.
B1: A22 (antibody, human IgG1, kappa, L234A L235A, V domains shown)
VH: EVQLVESGGGLVQPGGSLRLSCAASGFTFSDYYMAWVRQAPGKGLEWVANINYEGSRTDLLDSLKSRFTISRDNAKNSVYLQMNSLRAEDTAVYYCARDTSRGSYFDVWGAGTTVTVSS
VL: VVMTQTPLSLSVSLGDQASISCKSSQSIVHYNGKTYLEWYLQKPGQSPQLLIYKVSSRFSGVPDRFSGSGSGTDFTLKISRVEAEDLGVYYCFQGSHFPLTFGQGTKLEIKR
B2: A25 (antibody, human IgG1, kappa, L234A L235A, V domains shown)
VH: B1 VH with D62E
VL: B1 VL with F59A
B3: A45 (antibody, human IgG1, kappa, L234A L235A)
light: VVMTQTPLSLSVSLGDQASISCKSSQSIVHYNENTYLEWYLQKPGQSPQLLIYKVSSRASGVPDRFSGSGSGTDFTLKISRVEAEDLGVYYCFQGSHFPLTFGQGTKLEIKRTVAAPSVFIFPPSDEQLKSGTASVVCLLNNFYPREAKVQWKVDNALQSGNSQESVTEQDSKDSTYSLSSTLTLSKADYEKHKVYACEVTHQGLSSPVTKSFNRGEC
heavy: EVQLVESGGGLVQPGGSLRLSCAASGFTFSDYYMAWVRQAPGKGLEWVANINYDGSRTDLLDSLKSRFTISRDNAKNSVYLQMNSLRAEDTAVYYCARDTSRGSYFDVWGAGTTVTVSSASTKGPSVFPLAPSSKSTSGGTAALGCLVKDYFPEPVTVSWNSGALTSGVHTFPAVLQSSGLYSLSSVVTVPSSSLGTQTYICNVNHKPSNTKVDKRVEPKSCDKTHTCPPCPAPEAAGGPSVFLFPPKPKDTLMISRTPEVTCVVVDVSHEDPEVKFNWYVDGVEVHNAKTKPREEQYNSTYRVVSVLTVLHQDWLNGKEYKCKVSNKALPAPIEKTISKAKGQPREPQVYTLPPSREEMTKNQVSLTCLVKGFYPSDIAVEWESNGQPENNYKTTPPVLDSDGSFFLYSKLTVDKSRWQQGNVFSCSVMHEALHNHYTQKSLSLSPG
B4: A57 (antibody, human IgG1, kappa, L234A L235A, V domains shown)
VH: B1 VH with D62E
VL: B1 VL with S11P, K23R, G33A, K34N, S57N
B5: A55 (antibody, human IgG1, kappa, L234A L235A, V domains shown)
VH: B1 VH with E54D, D62E
VL: B1 VL with S11P, K23R, G33E, K34N, S57N
B6: A62 (antibody, human IgG1, kappa, L234A L235A, V domains shown)
VH: B1 VH
VL: B1 VL with S11P, K23R, G33A, K34N, S57N
B7: A60 (antibody, human IgG1, kappa, L234A L235A, V domains shown)
VH: B1 VH with E54Y, D62A
VL: B1 VL with S11P, K23R, G33A, K34N, S57N
B8: A44 (antibody, human IgG1, kappa, L234A L235A, V domains shown)
VH: B1 VH with E54Y, D62A
VL: B1 VL with G33E, K34N, F59A
B9: A49 (antibody, human IgG1, kappa, L234A L235A, V domains shown)
VH: B1 VH with D62E
VL: B1 VL with S11P, K23R, G33E, K34N, S57N
B10: A61 (antibody, human IgG1, kappa, L234A L235A)
light: B3 light with S11P, K23R, E33A, S57N, A59F
heavy: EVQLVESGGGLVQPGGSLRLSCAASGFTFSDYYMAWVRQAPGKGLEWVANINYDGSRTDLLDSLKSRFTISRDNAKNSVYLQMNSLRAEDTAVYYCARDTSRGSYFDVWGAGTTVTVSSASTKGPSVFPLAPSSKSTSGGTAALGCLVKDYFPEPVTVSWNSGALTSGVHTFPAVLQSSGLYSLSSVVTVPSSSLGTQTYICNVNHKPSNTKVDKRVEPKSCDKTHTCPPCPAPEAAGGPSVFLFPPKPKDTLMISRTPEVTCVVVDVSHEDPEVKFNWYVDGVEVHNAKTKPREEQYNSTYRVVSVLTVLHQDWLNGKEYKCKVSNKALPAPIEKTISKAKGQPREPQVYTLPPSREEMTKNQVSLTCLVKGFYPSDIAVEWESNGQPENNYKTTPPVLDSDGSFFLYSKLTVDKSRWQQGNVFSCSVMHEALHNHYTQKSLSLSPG
B11: A42 (antibody, human IgG1, kappa, L234A L235A, V domains shown)
VH: B1 VH with E54Y, D62E
VL: B1 VL with G33E, K34N, F59A
B12: A50 (antibody, human IgG1, kappa, L234A L235A, V domains shown)
VH: B1 VH with E54Y, D62E
VL: B1 VL with S11P, K23R, G33E, K34N, S57N
B13: A46 (antibody, human IgG1, kappa, L234A L235A, V domains shown)
VH: B1 VH
VL: B1 VL with G33E, K34N, F59A
B14: A63 (antibody, human IgG1, kappa, L234A L235A, V domains shown)
VH: B1 VH with E54D, D62E
VL: B1 VL with S11P, K23R, G33A, K34N, S57N
B15: A37 (antibody, human IgG1, kappa, L234A L235A, V domains shown)
VH: B1 VH with E54D
VL: B1 VL with G33E, K34N
B16: A36 (antibody, human IgG1, kappa, L234A L235A, V domains shown)
VH: B1 VH with E54Y, D62A
VL: B1 VL with G33E, K34N
B17: A35 (antibody, human IgG1, kappa, L234A L235A, V domains shown)
VH: B1 VH with D62A
VL: B1 VL with G33E, K34N
B18: A48 (antibody, human IgG1, kappa, L234A L235A)
light: B3 light
heavy: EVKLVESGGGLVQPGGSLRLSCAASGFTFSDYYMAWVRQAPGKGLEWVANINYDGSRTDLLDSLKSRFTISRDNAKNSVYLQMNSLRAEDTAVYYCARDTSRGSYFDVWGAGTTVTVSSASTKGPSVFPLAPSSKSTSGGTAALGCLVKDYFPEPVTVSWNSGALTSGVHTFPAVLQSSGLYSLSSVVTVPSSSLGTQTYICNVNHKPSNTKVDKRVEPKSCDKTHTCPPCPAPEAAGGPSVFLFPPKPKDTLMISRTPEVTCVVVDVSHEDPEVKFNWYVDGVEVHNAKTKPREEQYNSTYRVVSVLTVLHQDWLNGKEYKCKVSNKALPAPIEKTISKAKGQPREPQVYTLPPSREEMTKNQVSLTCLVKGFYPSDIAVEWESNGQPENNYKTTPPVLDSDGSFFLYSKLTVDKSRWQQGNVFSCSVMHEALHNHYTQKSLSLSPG
B19: A54 (antibody, human IgG1, kappa, L234A L235A, V domains shown)
VH: B1 VH
VL: B1 VL with S11P, K23R, G33E, K34N, S57N
B20: A34 (antibody, human IgG1, kappa, L234A L235A, V domains shown)
VH: B1 VH with E54Y, D62E
VL: B1 VL with G33E, K34N
B21: A43 (antibody, human IgG1, kappa, L234A L235A, V domains shown)
VH: B1 VH with D62A
VL: B1 VL with G33E, K34N, F59A
B22: A41 (antibody, human IgG1, kappa, L234A L235A, V domains shown)
VH: B1 VH with D62E
VL: B1 VL with G33E, K34N, F59A
B23: A23 (antibody, human IgG1, kappa, L234A L235A, V domains shown)
VH: B1 VH with E54D, D62E
VL: B1 VL
B24: A47 (antibody, human IgG1, kappa, L234A L235A, V domains shown)
VH: B1 VH with E54D, D62E
VL: B1 VL with G33E, K34N, F59A
B25: A24 (antibody, human IgG1, kappa, L234A L235A)
light: B3 light with E33G, N34K, A59F
heavy: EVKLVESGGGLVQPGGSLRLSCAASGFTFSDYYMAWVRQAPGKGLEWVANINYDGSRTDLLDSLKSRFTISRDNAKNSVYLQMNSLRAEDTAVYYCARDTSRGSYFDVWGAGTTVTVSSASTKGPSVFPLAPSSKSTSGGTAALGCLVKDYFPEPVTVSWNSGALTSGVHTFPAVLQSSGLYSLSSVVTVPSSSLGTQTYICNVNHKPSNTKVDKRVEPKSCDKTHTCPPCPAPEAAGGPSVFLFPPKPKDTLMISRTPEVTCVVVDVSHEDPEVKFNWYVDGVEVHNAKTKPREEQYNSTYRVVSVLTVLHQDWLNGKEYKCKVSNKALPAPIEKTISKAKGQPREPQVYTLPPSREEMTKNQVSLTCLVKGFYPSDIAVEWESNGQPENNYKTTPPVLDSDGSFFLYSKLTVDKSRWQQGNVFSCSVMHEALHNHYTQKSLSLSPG
B26: A58 (antibody, human IgG1, kappa, L234A L235A, V domains shown)
VH: B1 VH with E54Y, D62E
VL: B1 VL with S11P, K23R, G33A, K34N, S57N
B27: A56 (antibody, human IgG1, kappa, L234A L235A)
light: B3 light with S11P, K23R, S57N, A59F
heavy: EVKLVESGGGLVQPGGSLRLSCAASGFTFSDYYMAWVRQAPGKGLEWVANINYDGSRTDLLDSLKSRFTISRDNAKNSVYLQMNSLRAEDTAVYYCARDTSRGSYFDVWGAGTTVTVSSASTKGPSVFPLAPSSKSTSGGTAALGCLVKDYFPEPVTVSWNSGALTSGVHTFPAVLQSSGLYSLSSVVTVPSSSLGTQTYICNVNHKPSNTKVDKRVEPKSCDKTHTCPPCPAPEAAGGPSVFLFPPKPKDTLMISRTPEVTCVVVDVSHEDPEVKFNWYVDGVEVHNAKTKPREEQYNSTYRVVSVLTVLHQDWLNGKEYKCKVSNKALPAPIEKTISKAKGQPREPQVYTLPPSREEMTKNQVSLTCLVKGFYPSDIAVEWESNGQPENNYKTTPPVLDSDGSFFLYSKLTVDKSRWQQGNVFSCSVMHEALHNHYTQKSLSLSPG
B28: A53 (antibody, human IgG1, kappa, L234A L235A)
light: B3 light with S11P, K23R, S57N, A59F
heavy: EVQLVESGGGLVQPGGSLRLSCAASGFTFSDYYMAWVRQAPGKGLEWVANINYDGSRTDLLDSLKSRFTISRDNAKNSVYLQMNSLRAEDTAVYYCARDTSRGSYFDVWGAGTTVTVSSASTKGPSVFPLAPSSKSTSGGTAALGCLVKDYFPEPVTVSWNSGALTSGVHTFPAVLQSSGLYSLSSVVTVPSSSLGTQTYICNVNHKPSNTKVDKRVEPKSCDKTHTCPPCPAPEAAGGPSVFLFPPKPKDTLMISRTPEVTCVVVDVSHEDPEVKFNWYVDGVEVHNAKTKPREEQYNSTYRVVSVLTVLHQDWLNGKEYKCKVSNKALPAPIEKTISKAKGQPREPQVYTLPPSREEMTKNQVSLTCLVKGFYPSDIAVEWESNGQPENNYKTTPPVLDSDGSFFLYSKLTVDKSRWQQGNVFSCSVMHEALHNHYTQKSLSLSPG
B29: A52 (antibody, human IgG1, kappa, L234A L235A, V domains shown)
VH: B1 VH with E54Y, D62A
VL: B1 VL with S11P, K23R, G33E, K34N, S57N
B30: A51 (antibody, human IgG1, kappa, L234A L235A, V domains shown)
VH: B1 VH with D62A
VL: B1 VL with S11P, K23R, G33E, K34N, S57N
B31: A59 (antibody, human IgG1, kappa, L234A L235A, V domains shown)
VH: B1 VH with D62A
VL: B1 VL with S11P, K23R, G33A, K34N, S57N

Target: T1, Full-length human CTGF (human, UniProt P29279 27-349)
T1 construct: Corresponds to NCBI NP_001892.1 with the signal peptide omitted; purchased from R&D Systems; also called hCTGF full length; full length CTGF
T1 sequence: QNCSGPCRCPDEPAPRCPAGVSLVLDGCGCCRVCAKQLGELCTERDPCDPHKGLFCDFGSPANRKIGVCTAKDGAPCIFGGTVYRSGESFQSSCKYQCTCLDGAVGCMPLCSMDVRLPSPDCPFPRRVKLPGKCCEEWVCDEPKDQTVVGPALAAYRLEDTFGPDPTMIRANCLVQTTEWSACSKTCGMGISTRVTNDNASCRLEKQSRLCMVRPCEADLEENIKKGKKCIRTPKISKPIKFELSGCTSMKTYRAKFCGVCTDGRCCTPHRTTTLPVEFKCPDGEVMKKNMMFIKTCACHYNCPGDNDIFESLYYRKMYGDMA
Test: SPR, full length CTGF

Question: How did the Kd turn out when B1 was run?
Answer: 0.21 nM

Question: Which Kd does the source give for B2 here?
Answer: 0.15 nM

Question: Does B3 bind?
Answer: no binding

Question: For B4, which Kd is on record?
Answer: 0.35 nM

Question: For B5, which Kd is on record?
Answer: 0.35 nM

Question: With B6 as the binder, how does the Kd read?
Answer: 0.35 nM

Question: B7 was tested. Which Kd did it give?
Answer: 0.3 nM

Question: How did the Kd turn out when B8 was run?
Answer: 0.16 nM

Question: For B9, which Kd is on record?
Answer: 0.3 nM

Question: How did the Kd turn out when B10 was run?
Answer: 0.35 nM

Question: Which Kd does the source give for B11 here?
Answer: 0.15 nM

Question: Which Kd does the source give for B12 here?
Answer: 0.26 nM

Question: For B13, which Kd is on record?
Answer: 0.2 nM

Question: B14 was tested. Which Kd did it give?
Answer: 0.34 nM

Question: Does B15 bind?
Answer: no binding

Question: Does B16 bind?
Answer: no binding

Question: Does B17 bind?
Answer: no binding

Question: For B18, which Kd is on record?
Answer: 0.23 nM

Question: Which Kd does the source give for B19 here?
Answer: 0.31 nM

Question: Does B20 bind?
Answer: no binding

Question: How did the Kd turn out when B21 was run?
Answer: 0.15 nM

Question: B22 was tested. Which Kd did it give?
Answer: 0.19 nM

Question: For B23, which Kd is on record?
Answer: 0.23 nM

Question: Does B24 bind?
Answer: no binding

Question: B25 was tested. Which Kd did it give?
Answer: 0.23 nM

Question: With B26 as the binder, how does the Kd read?
Answer: 0.3 nM

Question: How did the Kd turn out when B27 was run?
Answer: 0.31 nM

Question: With B28 as the binder, how does the Kd read?
Answer: 0.36 nM

Question: B29 was tested. Which Kd did it give?
Answer: 0.27 nM

Question: How did the Kd turn out when B30 was run?
Answer: 0.25 nM

Question: With B31 as the binder, how does the Kd read?
Answer: 0.27 nM
